Source: patent US20210253725A1 (BIONTECH, published 2021)

T1: CD27 expressed on the cell surface (HT1080_CD27 cells) (human, UniProt P26842 20-260)
T1 sequence (looked up): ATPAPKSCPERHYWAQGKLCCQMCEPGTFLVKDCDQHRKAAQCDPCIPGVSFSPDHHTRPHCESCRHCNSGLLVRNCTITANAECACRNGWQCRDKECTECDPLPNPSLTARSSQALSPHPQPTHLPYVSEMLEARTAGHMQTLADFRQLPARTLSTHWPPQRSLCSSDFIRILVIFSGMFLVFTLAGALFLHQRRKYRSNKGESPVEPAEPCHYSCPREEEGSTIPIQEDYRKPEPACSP

T2: CD27 protein (His-tagged, Sino Biological Inc. 10039-H08B1) (human, UniProt P26842 20-192)
T2 construct: bought; coated onto ELISA plates; also called human CD27; recombinant protein; not shown: His tag
T2 sequence (looked up): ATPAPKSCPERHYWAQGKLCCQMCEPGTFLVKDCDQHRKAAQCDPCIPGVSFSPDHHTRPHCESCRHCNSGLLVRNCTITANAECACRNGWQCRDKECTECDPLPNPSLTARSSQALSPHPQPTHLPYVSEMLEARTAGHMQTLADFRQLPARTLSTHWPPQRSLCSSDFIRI

T3: CD134 protein (His-tagged, Sino Biological Inc. 10481-H08H) (human, UniProt P43489 29-216)
T3 construct: bought protein coated on ELISA plates; also called OX40; TNFRSF4; not shown: His tag
T3 sequence (looked up): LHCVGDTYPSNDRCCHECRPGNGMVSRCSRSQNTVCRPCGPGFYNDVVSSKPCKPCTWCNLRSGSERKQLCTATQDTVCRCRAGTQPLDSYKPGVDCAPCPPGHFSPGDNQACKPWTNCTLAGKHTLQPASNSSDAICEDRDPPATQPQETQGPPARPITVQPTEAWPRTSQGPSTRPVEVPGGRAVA

T4: CD134 expressed on the cell surface of HT1080_OX40 cells (human, UniProt P43489 29-277)
T4 sequence (looked up): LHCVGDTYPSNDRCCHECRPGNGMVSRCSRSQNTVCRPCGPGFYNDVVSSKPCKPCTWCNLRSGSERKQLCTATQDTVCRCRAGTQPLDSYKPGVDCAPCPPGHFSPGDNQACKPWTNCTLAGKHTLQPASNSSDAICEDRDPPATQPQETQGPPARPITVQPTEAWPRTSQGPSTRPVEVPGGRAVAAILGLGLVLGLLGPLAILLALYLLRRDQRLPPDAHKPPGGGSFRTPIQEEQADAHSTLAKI


Legend:
[1] = target: T1, CD27 expressed on the cell surface …; test: cell-based or functional assay
[2] = target: T1, CD27 expressed on the cell surface …; test: cellular binding assay, HT1080_CD27 cells
[3] = target: T2, CD27 protein (His-tagged, Sino …); test: ELISA on coated His-tagged CD27
[4] = target: T3, CD134 protein (His-tagged, Sino …); test: ELISA, coated His-tagged CD134
[5] = target: T4, CD134 expressed on the cell surface of …; test: cell-based or functional assay
[6] = target: T4, CD134 expressed on the cell surface of …; test: HT1080_OX40 cells, imaging
Also: test concentration or dose not given here.

Binder	IL-8, cross-linked by F(ab')2 fragment [abs. corr.] [1] [abs. corr.]	IL-8 [abs. corr.] [1] [abs. corr.]	Cellular binding assay [RFU] [2] [RFU]	ELISA [abs. corr.] [3] [abs. corr.]	ELISA [abs. corr.] [4] [abs. corr.]	Functional assay Cross-linked by F(ab′)2 fragment IL-8 [5] [abs. corr.]	Functional assay IL-8 [5] [abs. corr.]	Cellular binding assay [RFU] [6] [RFU]
P018.S.02.A.G01 (antibody, V domains shown, V regions on human Ig constant parts; also called AB27_37) VH: QSLEESGGRLVTPGTPLTLTCTVSGIDLSSNAMNWVRQAPGKGLEWIGIIYTSGSTYYASWVKGRFTISRTSTTVDLEMTSLTTEDTATYFCARGVTIDWFDLWGQGTLVTVSS VL: AAVLTQTPSSVSAAVGGTVTINCQSSPSVYSNYLSWFQQKPGQPPKLLIYGASTLTSGVPSRFKGSGSGTQFTLTINDVQSDDAATYWCLGGYGDINDTTFGGGTEVVVK	1.52	0.127	332	3.41	–	–	–	–
P018.S.03.A.G06 (antibody, V domains shown, V regions on human Ig constant parts; also called AB27_59) VH: QSLEESGGDLVKPGASLTLTCTASGFSFSRNNYMCWVRQAPGKGLESIACIHDGNSVGIYYTTWAKGRFTISKTSSTTVTLQMTSLTVADTATYFCARMSYTNDWDPIWGPGTLVTVSS VL: DIVMTQTPASVEAAVGGTVTIDCQASENIYSLLAWYQQKPGQPPKVLISLASNLASGVPSRFKGSGSGTQFSLTISDLESADAATYYCQGYYYSSSTSYENAFGGGTEVVVS	1.36	0.56	302	3.4	–	–	–	–
P018.S.10.A.G05 (antibody, V domains shown, V regions on human Ig constant parts; also called AB27_183) VH: QSVEESGGRLVTPGTPLTLTCTVSGFSLNNAHMCWVRQAPGKGLEWIGIIGASGSTYYASWAKGRFTISKTSTTVDLKMTSLTTEDTATYFCGRTDVGYTTANLWGQGTLVTVSS VL: DVVMTQTPASVSAAVGGTVTIKCQASQTISSYLSWYQQKPGQPPKRLIYSASTLASGVSSRFKGSGSGTQFTLTISDLESADAATYYCQAYDTTSGTDLWAFGGGTEVVVK	1.25	0.137	408	3.42	–	–	–	–
P018.S.11.A.G02 (antibody, V domains shown, V regions on human Ig constant parts; also called AB134_42) VH: QSVEESGGRLVTPGTPLTLTCTVSGFSLSGYDMSWVRQAPGKGLEWIGYIYGGNTYYANWAKGRFTISKTSTTVDLKMTSPTTEDTATYFCTRVGAGYSGVWAYFNLWGPGTLVTVSS VL: AQVLTQTPSSVSAAVGGTVTINCQSSQSVDSDNYLAWYQQKPGQPPKLLIYDTSKLASGVPSRFTGSGSGTQFTLTISGVQSDDAATYYCQGTYYNAGWYFAFGGGTEVVVK	–	–	–	–	1.07	2.06	0.27	357
P018.S.04.A.E04 (antibody, V domains shown, V regions on human Ig constant parts; also called AB27_75) VH: QSVEESGGRLVTPGTPLTLTCTVSGFSLSTYAMNWIRQAPGKGLEWIGTITTGGSTFFASWAKGRFTISKTSTTVDLKITSPTTEDTATYFCARGGDTGYGFSYFDLWGQGTLVTVSS VL: AVVLTQTPASVSEPVGGTVTIKCQASENIYSSLAWYQQKPGQPPKLLIYDASTLASGVPSRFKGSGSGTEYTLTISGVQSDDAATYYCQQGYSTSNLVNPFGGGTELVVN	1.34	0.641	283	3.38	–	–	–	–
P018.S.04.A.D02 (antibody, V domains shown, V regions on human Ig constant parts; also called AB27_71) VH: QSLEESGGRLVTPGTPLTLTCTASGFSLSTYAMGWVRQAPGEGLEWIGNINTDSGDTWYARWAKGRFTISTTSSTTVDLKITSPTIEDTATYFCARNPGDDVNLWGQGTLVTVSS VL: AQVLTQTPSPVSAAVGDTVTINCQASQSVYNNNDLAWFQQKPGQPPKLLIYRTSILASGVPSRFKGSGSGTQFTLTISDLESDDAATYYCQGYYSGVIYVFGGGTEVVVK	1.35	0.294	335	3.42	–	–	–	–
P018.S.07.A.A05 (antibody, V domains shown, V regions on human Ig constant parts; also called AB27_114) VH: QEHLEESGGDLVKPGASLTLTCKASGFDLSINVMCWVRQAPGKGPEWIVCIDNGDGSTYYASWVNGRFTISKTSSTTVTLQMTSLTAADTATYFCARPGTFTYGGNTYPGSFVLWGPGTLVTVSS VL: AFELTQTPSSVEAAVGGTVTINCQASQSISNALAWYQQKPGQPPKLLIYTASNLASGVPSRFKGSGSGTQFTLTISDLESADAATYYCQNYYVNIIGIGFGGGTEVVVK	1.03	0.408	379	3.44	–	–	–	–
